Measurements reported in the MegaScale stability set (Tsuboyama et al. 2023).

B1: 1ZHC (parent)
chain: HEFRDEISVLKANNPHFDKIFEKHNQLDDDIKTAEQQNASDAEVSHMKKQKLKLKDEIHSMIIEYREK

Variants of: B1
Assay: folding stability dG (cDNA display proteolysis); higher = more stable
Conditions: PBS, room temperature

Variant | folding stability dG
HEFRDEISVLKANNPHFDKIFEKHNQLDDDIKTAEQQNASDAEVSHMKKQKLKLKDEIHSMIIEYYEK [R66Y] | 0.091 kcal/mol
HEFRDEISVLKANNPHFDKIFEKHNQLDDDIKTAEQQNASDAEVSHMKKQKLKLKDEIHSMIIEYKEK [R66K] | 0.404 kcal/mol
HEFRDEISVLKANNPHFDKIFEKHNQLDDDIKTAEQQNASDAEVSHMKKQKLKLKDEIHSMIIEYHEK [R66H] | 1.53 kcal/mol
HEFRDEISVLKANNPHFDKIFEKHNQLDDDIKTAEQQNASDAEVSHMKKQKLKLKDEIHSMIIEYSEK [R66S] | -0.498 kcal/mol
HEFRDEISVLKANNPHFDKIFEKHNQLDDDIKTAEQQNASDAEVSHMKKQKLKLKDEIHSMIIEYWEK [R66W] | 0.163 kcal/mol
HEFRDEISVLKANNPHFDKIFEKHNQLDDDIKTAEQQNASDAEVSHMKKQKLKLKDEIHSMIIEYCEK [R66C] | 0.384 kcal/mol
HEFRDEISVLKANNPHFDKIFEKHNQLDDDIKTAEQQNASDAEVSHMKKQKLKLKDEIHSMIIEYLEK [R66L] | 1.07 kcal/mol
HEFRDEISVLKANNPHFDKIFEKHNQLDDDIKTAEQQNASDAEVSHMKKQKLKLKDEIHSMIIEYFEK [R66F] | 0.147 kcal/mol
HEFRDEISVLKANNPHFDKIFEKHNQLDDDIKTAEQQNASDAEVSHMKKQKLKLKDEIHSMIIEYIEK [R66I] | 0.692 kcal/mol
HEFRDEISVLKANNPHFDKIFEKHNQLDDDIKTAEQQNASDAEVSHMKKQKLKLKDEIHSMIIEYVEK [R66V] | 0.348 kcal/mol
HEFRDEISVLKANNPHFDKIFEKHNQLDDDIKTAEQQNASDAEVSHMKKQKLKLKDEIHSMIIEYQEK [R66Q] | 0.328 kcal/mol
HEFRDEISVLKANNPHFDKIFEKHNQLDDDIKTAEQQNASDAEVSHMKKQKLKLKDEIHSMIIEYMEK [R66M] | 0.762 kcal/mol
HEFRDEISVLKANNPHFDKIFEKHNQLDDDIKTAEQQNASDAEVSHMKKQKLKLKDEIHSMIIEVREK [Y65V] | -0.888 kcal/mol
HEFRDEISVLKANNPHFDKIFEKHNQLDDDIKTAEQQNASDAEVSHMKKQKLKLKDEIHSMIIESREK [Y65S] | -0.451 kcal/mol
HEFRDEISVLKANNPHFDKIFEKHNQLDDDIKTAEQQNASDAEVSHMKKQKLKLKDEIHSMIIEAREK [Y65A] | 0.205 kcal/mol
HEFRDEISVLKANNPHFDKIFEKHNQLDDDIKTAEQQNASDAEVSHMKKQKLKLKDEIHSMIIEIREK [Y65I] | 0.311 kcal/mol
HEFRDEISVLKANNPHFDKIFEKHNQLDDDIKTAEQQNASDAEVSHMKKQKLKLKDEIHSMIIEHREK [Y65H] | 0.113 kcal/mol
HEFRDEISVLKANNPHFDKIFEKHNQLDDDIKTAEQQNASDAEVSHMKKQKLKLKDEIHSMIIEWREK [Y65W] | 0.961 kcal/mol
HEFRDEISVLKANNPHFDKIFEKHNQLDDDIKTAEQQNASDAEVSHMKKQKLKLKDEIHSMIIEFREK [Y65F] | 1.01 kcal/mol
HEFRDEISVLKANNPHFDKIFEKHNQLDDDIKTAEQQNASDAEVSHMKKQKLKLKDEIHSMIIENREK [Y65N] | -0.975 kcal/mol
HEFRDEISVLKANNPHFDKIFEKHNQLDDDIKTAEQQNASDAEVSHMKKQKLKLKDEIHSMIIEQREK [Y65Q] | 0.149 kcal/mol
HEFRDEISVLKANNPHFDKIFEKHNQLDDDIKTAEQQNASDAEVSHMKKQKLKLKDEIHSMIIEMREK [Y65M] | 0.384 kcal/mol
HEFRDEISVLKANNPHFDKIFEKHNQLDDDIKTAEQQNASDAEVSHMKKQKLKLKDEIHSMIIELREK [Y65L] | 0.386 kcal/mol
HEFRDEISVLKANNPHFDKIFEKHNQLDDDIKTAEQQNASDAEVSHMKKQKLKLKDEIHSMIIEEREK [Y65E] | -0.672 kcal/mol
HEFRDEISVLKANNPHFDKIFEKHNQLDDDIKTAEQQNASDAEVSHMKKQKLKLKDEIHSMIIECREK [Y65C] | -0.316 kcal/mol
HEFRDEISVLKANNPHFDKIFEKHNQLDDDIKTAEQQNASDAEVSHMKKQKLKLKDEIHSMIIEYREM [K68M] | 0.491 kcal/mol
HEFRDEISVLKANNPHFDKIFEKHNQLDDDIKTAEQQNASDAEVSHMKKQKLKLKDEIHSMIIEYREV [K68V] | 0.338 kcal/mol

Variant | folding stability dG
HEFRDEISVLKANNPHFDKIFEKHNQLDDDIKTAEQQNASDAEVSHMKKQKLKLKDEIHSMIIEYREQ [K68Q] | 0.861 kcal/mol
HEFRDEISVLKANNPHFDKIFEKHNQLDDDIKTAEQQNASDAEVSHMKKQKLKLKDEIHSMIIEYREA [K68A] | 0.786 kcal/mol
HEFRDEISVLKANNPHFDKIFEKHNQLDDDIKTAEQQNASDAEVSHMKKQKLKLKDEIHSMIIEYRET [K68T] | 0.49 kcal/mol
HEFRDEISVLKANNPHFDKIFEKHNQLDDDIKTAEQQNASDAEVSHMKKQKLKLKDEIHSMIIEYRES [K68S] | 0.62 kcal/mol
HEFRDEISVLKANNPHFDKIFEKHNQLDDDIKTAEQQNASDAEVSHMKKQKLKLKDEIHSMIIEYRED [K68D] | -0.648 kcal/mol
HEFRDEISVLKANNPHFDKIFEKHNQLDDDIKTAEQQNASDAEVSHMKKQKLKLKDEIHSMIIEYREG [K68G] | 0.495 kcal/mol
HEFRDEISVLKANNPHFDKIFEKHNQLDDDIKTAEQQNASDAEVSHMKKQKLKLKDEIHSMIIEYREI [K68I] | 0.298 kcal/mol
HEFRDEISVLKANNPHFDKIFEKHNQLDDDIKTAEQQNASDAEVSHMKKQKLKLKDEIHSMIIEYREL [K68L] | 0.469 kcal/mol
HEFRDEISVLKANNPHFDKIFEKHNQLDDDIKTAEQQNASDAEVSHMKKQKLKLKDEIHSMIIEYREH [K68H] | 0.512 kcal/mol
HEFRDEISVLKANNPHFDKIFEKHNQLDDDIKTAEQQNASDAEVSHMKKQKLKLKDEIHSMIIEYREY [K68Y] | 0.578 kcal/mol
HEFRDEISVLKANNPHFDKIFEKHNQLDDDIKTAEQQNASDAEVSHMKKQKLKLKDEIHSMIIEYREE [K68E] | -0.339 kcal/mol
HEFRDEISVLKANNPHFDKIFEKHNQLDDDIKTAEQQNASDAEVSHMKKQKLKLKDEIHSMIIEYREN [K68N] | 0.792 kcal/mol
HEFRDEISVLKANNPHFDKIFEKHNQLDDDIKTAEQQNASDAEVSHMKKQKLKLKDEIHSMIIEYREC [K68C] | 0.745 kcal/mol
HEFRDEISVLKANNPHFDKIFEKHNQLDDDIKTAEQQNASDAEVSHMKKQKLKLKDEIHSMIIEYREW [K68W] | 0.673 kcal/mol
HEFRDEISVLKANNPHFDKIFEKHNQLDDDIKTAEQQNASDAEVSHMKKQKLKLKDEIHSMIIEYRER [K68R] | 1.2 kcal/mol
HEFRDEISVLKANNPHFDKIFEKHNQLDDDIKTAEQQNASDAEVSHMKKQKLKLKDEIHSMIIEYREF [K68F] | 0.363 kcal/mol
HEFRDEISVLKANNPHFDKIFEKHNQLDDDIKTAEQQNASDAEVSHMKKQKLKLKDEIHSMIIYYREK [E64Y] | 0.484 kcal/mol
HEFRDEISVLKANNPHFDKIFEKHNQLDDDIKTAEQQNASDAEVSHMKKQKLKLKDEIHSMIIQYREK [E64Q] | 0.969 kcal/mol
HEFRDEISVLKANNPHFDKIFEKHNQLDDDIKTAEQQNASDAEVSHMKKQKLKLKDEIHSMIIRYREK [E64R] | 0.669 kcal/mol
HEFRDEISVLKANNPHFDKIFEKHNQLDDDIKTAEQQNASDAEVSHMKKQKLKLKDEIHSMIIFYREK [E64F] | 0.527 kcal/mol
HEFRDEISVLKANNPHFDKIFEKHNQLDDDIKTAEQQNASDAEVSHMKKQKLKLKDEIHSMIIVYREK [E64V] | -0.038 kcal/mol
HEFRDEISVLKANNPHFDKIFEKHNQLDDDIKTAEQQNASDAEVSHMKKQKLKLKDEIHSMIIMYREK [E64M] | 0.766 kcal/mol
HEFRDEISVLKANNPHFDKIFEKHNQLDDDIKTAEQQNASDAEVSHMKKQKLKLKDEIHSMIIKYREK [E64K] | 0.999 kcal/mol
HEFRDEISVLKANNPHFDKIFEKHNQLDDDIKTAEQQNASDAEVSHMKKQKLKLKDEIHSMIIHYREK [E64H] | 0.632 kcal/mol
HEFRDEISVLKANNPHFDKIFEKHNQLDDDIKTAEQQNASDAEVSHMKKQKLKLKDEIHSMIIDYREK [E64D] | 0.037 kcal/mol
HEFRDEISVLKANNPHFDKIFEKHNQLDDDIKTAEQQNASDAEVSHMKKQKLKLKDEIHSMIIWYREK [E64W] | 0.701 kcal/mol
HEFRDEISVLKANNPHFDKIFEKHNQLDDDIKTAEQQNASDAEVSHMKKQKLKLKDEIHSMIIIYREK [E64I] | 0.119 kcal/mol

Variant | folding stability dG
HEFRDEISVLKANNPHFDKIFEKHNQLDDDIKTAEQQNASDAEVSHMKKQKLKLKDEIHSMIISYREK [E64S] | 0.735 kcal/mol
HEFRDEISVLKANNPHFDKIFEKHNQLDDDIKTAEQQNASDAEVSHMKKQKLKLKDEIHSMIIGYREK [E64G] | -0.85 kcal/mol
HEFRDEISVLKANNPHFDKIFEKHNQLDDDIKTAEQQNASDAEVSHMKKQKLKLKDEIHSMIICYREK [E64C] | 0.731 kcal/mol
HEFRDEISVLKANNPHFDKIFEKHNQLDDDIKTAEQQNASDAEVSHMKKQKLKLKDEIHSMIIAYREK [E64A] | 1.31 kcal/mol
HEFRDEISVLKANNPHFDKIFEKHNQLDDDIKTAEQQNASDAEVSHMKKQKLKLKDEIHSMIILYREK [E64L] | 0.829 kcal/mol
HEFRDEISVLKANNPHFDKIFEKHNQLDDDIKTAEQQNASDAEVSHMKKQKLKLKDEIHSMIITYREK [E64T] | 0.262 kcal/mol
HEFRDEISVLKANNPHFDKIFEKHNQLDDDIKTAEQQNASDAEVSHMKKQKLKLKDEIHSMIINYREK [E64N] | 0.583 kcal/mol
HEFRDEISVLKANNPHFDKIFEKHNQLDDDIKTAEQQNASDAEVSHMKKQKLKLKDEIHSMIIEYRKK [E67K] | 1.08 kcal/mol
HEFRDEISVLKANNPHFDKIFEKHNQLDDDIKTAEQQNASDAEVSHMKKQKLKLKDEIHSMIIEYRRK [E67R] | 1.3 kcal/mol
HEFRDEISVLKANNPHFDKIFEKHNQLDDDIKTAEQQNASDAEVSHMKKQKLKLKDEIHSMIIEYRLK [E67L] | 1.02 kcal/mol
HEFRDEISVLKANNPHFDKIFEKHNQLDDDIKTAEQQNASDAEVSHMKKQKLKLKDEIHSMIIEYRCK [E67C] | 1.33 kcal/mol
HEFRDEISVLKANNPHFDKIFEKHNQLDDDIKTAEQQNASDAEVSHMKKQKLKLKDEIHSMIIEYRMK [E67M] | 0.866 kcal/mol
HEFRDEISVLKANNPHFDKIFEKHNQLDDDIKTAEQQNASDAEVSHMKKQKLKLKDEIHSMIIEYRAK [E67A] | 1.08 kcal/mol
HEFRDEISVLKANNPHFDKIFEKHNQLDDDIKTAEQQNASDAEVSHMKKQKLKLKDEIHSMIIEYRDK [E67D] | 0.551 kcal/mol
HEFRDEISVLKANNPHFDKIFEKHNQLDDDIKTAEQQNASDAEVSHMKKQKLKLKDEIHSMIIEYRSK [E67S] | 1.04 kcal/mol
HEFRDEISVLKANNPHFDKIFEKHNQLDDDIKTAEQQNASDAEVSHMKKQKLKLKDEIHSMIIEYRIK [E67I] | 1.07 kcal/mol
HEFRDEISVLKANNPHFDKIFEKHNQLDDDIKTAEQQNASDAEVSHMKKQKLKLKDEIHSMIIEYRQK [E67Q] | 1.18 kcal/mol
HEFRDEISVLKANNPHFDKIFEKHNQLDDDIKTAEQQNASDAEVSHMKKQKLKLKDEIHSMIIEYRGK [E67G] | 0.605 kcal/mol
HEFRDEISVLKANNPHFDKIFEKHNQLDDDIKTAEQQNASDAEVSHMKKQKLKLKDEIHSMIIEYRFK [E67F] | 0.916 kcal/mol
HEFRDEISVLKANNPHFDKIFEKHNQLDDDIKTAEQQNASDAEVSHMKKQKLKLKDEIHSMIIEYRWK [E67W] | 0.996 kcal/mol
HEFRDEISVLKANNPHFDKIFEKHNQLDDDIKTAEQQNASDAEVSHMKKQKLKLKDEIHSMIIEYRTK [E67T] | 1.38 kcal/mol
HEFRDEISVLKANNPHFDKIFEKHNQLDDDIKTAEQQNASDAEVSHMKKQKLKLKDEIHSMIIEYRHK [E67H] | 1.04 kcal/mol
HEFRDEISVLKANNPHFDKIFEKHNQLDDDIKTAEQQNASDAEVSHMKKQKLKLKDEIHSMIIEYRNK [E67N] | 1.26 kcal/mol
HEFRDEISVLKANNPHFDKIFEKHNQLDDDIKTAEQQNASDAEVSHMKKQKLKLKDEIHSMIIEYRVK [E67V] | 0.889 kcal/mol
HEFRDEISVLKANNPHFDKIFEKHNQLDDDIKTAEQQNASDAEVSHMKKQKLKLKDEIHSMIIEYRYK [E67Y] | 0.933 kcal/mol
